Measured values as given in patent US20140295512A1, “Ketol-Acid Reductoisomerases With Improved Performance Properties” (CALIFORNIA INSTITUTE OF TECHNOLOGY, priority 2011, published 2014).
Substitutions are numbered along the chain they refer to. Numbers in names are those of the source.

B1: Se1_KARI^1AA10: S. exigua KARI variant S61C, S63D, I95T (protein, UniProt D0WGK0 1-342, looked up, variant S61C S63D I95T)
Ketol-acid reductoisomerase …: MSVKTKEKEMAVTILYEQDVDPKVIQGLKVGIIGYGSQGHAHALNLMDSGVDVRVGLREGCSDWKTAEEAGLKVTDMDTAAEEADVIMVLVPDETQPKVYQEHIAAHLKAGNTLAFAHGFNIHYGYIVPPEDVNVIMCAPKGPGHIVRRQFTEGSGVPDLACVQQDATGNAWDIVLSYCWGVGGARSGIIKATFAEETEEDLFGEQAVLCGGLVELVKAGFETLTEAGYPPELAYFECYHEMKMIVDLMYESGIHFMNYSISNTAEYGEYYAGPKVINEQSREAMKEILKRIQDGSFAQEFVDDCNNGHKRLLEQREAINTHPIETTGAQIRSMFSWIKKED
B2: Se1_NKR^S61DS63D: S. exigua KARI double aspartic acid variant S61D, S63D (protein, UniProt D0WGK0 1-342, looked up, variant S61D S63D)
Ketol-acid reductoisomerase …: B1 Ketol-acid reductoisomerase … with C61D, T95I
modifications: His6 tag
notes: S. exigua KARI double aspartic acid variant S61D, S63D
B3: Se1_NKR^2E8-his6: S. exigua KARI variant R58P, S61C, S62P, S63D, I95T (protein, UniProt D0WGK0 1-342, looked up, variant R58P S61C S62P S63D I95T)
Ketol-acid reductoisomerase …: B1 Ketol-acid reductoisomerase … with R58P, S62P
modifications: His6 tag
notes: S. exigua KARI variant R58P, S61C, S62P, S63D, I95T
B4: Se1_NKR^10C2-his6: S. exigua KARI variant R58P, S61C, S62A, S63D, I95T (protein, UniProt D0WGK0 1-342, looked up, variant R58P S61C S62A S63D I95T)
Ketol-acid reductoisomerase …: B1 Ketol-acid reductoisomerase … with R58P, S62A
modifications: His6 tag
notes: S. exigua KARI variant R58P, S61C, S62A, S63D, I95T
B5: Se1_KARI^GE11-his6: S. exigua KARI variant G60V (protein, UniProt D0WGK0 1-342, looked up, variant G60V)
Ketol-acid reductoisomerase …: B1 Ketol-acid reductoisomerase … with G60V, C61S, D63S, T95I
modifications: His6 tag
notes: S. exigua KARI variant G60V
B6: Se1_KARI^HF2-his6: S. exigua KARI variant S61C (protein, UniProt D0WGK0 1-342, looked up, variant S61C)
Ketol-acid reductoisomerase …: B1 Ketol-acid reductoisomerase … with D63S, T95I
modifications: His6 tag
notes: S. exigua KARI variant S61C
B7: Se1_KARI^JB7-his6: S. exigua KARI variant S63Q (protein, UniProt D0WGK0 1-342, looked up, variant S63Q)
Ketol-acid reductoisomerase …: B1 Ketol-acid reductoisomerase … with C61S, D63Q, T95I
modifications: His6 tag
notes: S. exigua KARI variant S63Q
B8: Se1_KARI^LE1-his6: S. exigua KARI variant I95V (protein, UniProt D0WGK0 1-342, looked up, variant I95V)
Ketol-acid reductoisomerase …: B1 Ketol-acid reductoisomerase … with C61S, D63S, T95V
modifications: His6 tag
notes: S. exigua KARI variant I95V
B9: Se1_KARI^EE1-his6: S. exigua KARI variant L57R (protein, UniProt D0WGK0 1-342, looked up, variant L57R)
Ketol-acid reductoisomerase …: B1 Ketol-acid reductoisomerase … with L57R, C61S, D63S, T95I
modifications: His6 tag
notes: S. exigua KARI variant L57R
B10: Se1_KARI^LE9-his6: S. exigua KARI variant I95T (protein, UniProt D0WGK0 1-342, looked up, variant I95T)
Ketol-acid reductoisomerase …: B1 Ketol-acid reductoisomerase … with C61S, D63S
modifications: His6 tag
notes: S. exigua KARI variant I95T
B11: S63E: Slackia KARI variant with residue S63 mutated to E (protein, UniProt D0WGK0 1-342, looked up, variant S63E)
Ketol-acid reductoisomerase …: B1 Ketol-acid reductoisomerase … with C61S, D63E, T95I
B12: S63H: Slackia KARI variant with residue S63 mutated to H (protein, UniProt D0WGK0 1-342, looked up, variant S63H)
Ketol-acid reductoisomerase …: B1 Ketol-acid reductoisomerase … with C61S, D63H, T95I
B13: S631: Slackia KARI variant with residue S63 mutated (printed S631, probably S63I) (protein, UniProt D0WGK0 1-342, looked up, variant S63I)
Ketol-acid reductoisomerase …: B1 Ketol-acid reductoisomerase … with C61S, D63I, T95I
B14: S63M: Slackia KARI variant with residue S63 mutated to M (protein, UniProt D0WGK0 1-342, looked up, variant S63M)
Ketol-acid reductoisomerase …: B1 Ketol-acid reductoisomerase … with C61S, D63M, T95I
B15: S63R: Slackia KARI variant with residue S63 mutated to R (protein, UniProt D0WGK0 1-342, looked up, variant S63R)
Ketol-acid reductoisomerase …: B1 Ketol-acid reductoisomerase … with C61S, D63R, T95I

Test: KARI assay of purified S. exigua KARI and variants with NADH (Examples 6-9)
Type: biochemical
Conditions: not given
Method: (§1) S. exigua KARI activity or activities of its variants were assayed kinetically by monitoring the decrease in NADPH or NADH concentration by measuring the change in absorbance at 340 nm. An assay buffer was prepared containing 100 mM potassium phosphate pH 7.0, 1 mM DTT, 2.5 mM (S)-2-acetolactate, and 10 mM MgCl2 (final concentrations in the 1-mL assay, accounting for dilution with enzyme and cofactor). Fifty μL purified enzyme and 930 μL of the assay buffer were placed into a 1-mL cuvette. The reaction was initiated by addition of 20 μL NADPH or NADH (200 μM final concentration) for a general activity assay. Michaelis-Menten constants of the cofactors were determined with varying concentrations of NADPH (200-12 μM final) or NADH (200-6 μM final).

Compared with B1, B2 is higher in “NADH KM value, fold increased versus wild-type” value: 1.3 fold for the first, 2.5 fold for the second.

In the case of B3, the “NADH KM value, fold increased versus wild-type” value is reported as 2 fold.

B1 and B2 are within 1.5-fold of each other in “kcat NADH” value: 0.8 s⁻¹ for the first, 1 ± 0.13 s⁻¹ for the second.

B3 and B4 are within 1.5-fold of each other in “kcat NADH” value: 0.4 s⁻¹ for the first, 0.27 s⁻¹ for the second.

Compared with B5, B6 is 2.2-fold lower in “kcat NADH” value: 1 s⁻¹ for the first, 0.45 s⁻¹ for the second.

B7 and B8 are within 1.5-fold of each other in “kcat NADH” value: 0.69 s⁻¹ for the first, 0.74 s⁻¹ for the second.

With B1 the “kcat with NADH, fold increase versus wild-type” value was 2 fold.

Going from B1 to B2, the “kcat/Km ratio NADH/NADPH (cofactor specificity)” value (from here on “kcat/Km ratio NADH/NADPH”) rises from 7.1 to 78.

Going from B3 to B4, the “kcat/Km ratio NADH/NADPH” value falls from 46 to 14.

In the case of B2, the “kcat in presence of NADH, fold higher than in presence of NADPH” value is reported as 10 fold.

Same assay, conditions: cofactor NADH

Compared with B1, B2 is higher in “U/mg NADH (specific activity)” value: 0.32 U/mg for the first, 0.4 ± 0.05 U/mg for the second.

First: B3
Second: B4
The “U/mg NADH (specific activity)” value of the first is higher: 0.16 U/mg for the first, 0.11 U/mg for the second.

Compared with B9, B5 is higher in “U/mg NADH (specific activity)” value: 0.06 U/mg for the first, 0.4 U/mg for the second.

First: B6
Second: B7
The “U/mg NADH (specific activity)” value of the first is lower: 0.18 U/mg for the first, 0.28 U/mg for the second.

Going from B10 to B8, the “U/mg NADH (specific activity)” value falls from 0.32 U/mg to 0.3 U/mg.

Same assay, conditions: cofactor NADH; listed as 1AA10

For B1, the “U/mg NADH (specific activity)” value was 0.8 U/mg.

Same assay, conditions: cofactor NADH; listed as Se1_KARI^GE11

For B5, the “U/mg NADH (specific activity)” value was 0.40 U/mg.

Same assay, conditions: cofactor NADH; listed as Se1_KARI^LE1

For B8, the “U/mg NADH (specific activity)” value was 0.30 U/mg.

Same assay, conditions: listed as S61D/S63D

In the case of B2, the “kcat NADH” value is reported as 1 s⁻¹.

Same assay, conditions: listed as Se1_KARI^1AA10-his6

In the case of B1, the “kcat/Km ratio NADH/NADPH” value is reported as 7.

Same assay, conditions: listed as Se1_NKR^DD-his6

In the case of B2, the “kcat NADH” value is reported as 1 s⁻¹.

In the case of B2, the “kcat/Km ratio NADH/NADPH” value is reported as 76.

Same assay, conditions: read-out: Km for cofactor NADH

Going from B1 to B2, the Km rises from 62 µM to 113 ± 4 µM (1.8-fold).

Going from B3 to B4, the Km rises from 87 µM to 250 µM (2.9-fold).

First: B6
Second: B8
The Km of the first is 2.3-fold higher: 43.8 µM for the first, 19 µM for the second.

Same assay, conditions: specific activity ratio

Going from B1 to B2, the “Ratio NADH/NADPH (U/mg)” value rises from 1.2 to 9.5.

Compared with B11, B12 is lower in “Ratio NADH/NADPH (U/mg)” value: 9 for the first, 4 for the second.

B13 and B14 are the same in “Ratio NADH/NADPH (U/mg)” value: 4 for the first, 4 for the second.

First: B15
Second: B3
The “Ratio NADH/NADPH (U/mg)” value of the first is higher: 3.7 for the first, 3.6 for the second.

Going from B4 to B9, the “Ratio NADH/NADPH (U/mg)” value falls from 3.4 to 1.58.

First: B5
Second: B6
The “Ratio NADH/NADPH (U/mg)” value of the first is lower: 0.48 for the first, 0.78 for the second.

Compared with B7, B10 is higher in “Ratio NADH/NADPH (U/mg)” value: 0.47 for the first, 0.58 for the second.

In the case of B8, the “Ratio NADH/NADPH (U/mg)” value is reported as 0.8.

Same assay, conditions: specific activity ratio; listed as Se1_KARI^GE11

For B5, the “Ratio NADH/NADPH (U/mg)” value was 0.50.

Test: KARI assay of purified S. exigua KARI and variants with NADPH (Examples 6-9)
Type: biochemical
Conditions: not given
Method: as §1

With B1 the “NADPH KM value, fold increased versus wild-type/parent” value was “at least 367 fold”.
For B2, the “NADPH KM value, fold increased versus wild-type/parent” value was “more than 800 fold”.

First: B1
Second: B2
The “kcat NADPH” value of the first is 6.7-fold higher: 0.67 s⁻¹ for the first, 0.1 ± 0.01 s⁻¹ for the second.

B3 and B4 are within 1.5-fold of each other in “kcat NADPH” value: 0.1 s⁻¹ for the first, 0.08 s⁻¹ for the second.

Going from B5 to B6, the “kcat NADPH” value falls from 2 s⁻¹ to 0.57 s⁻¹ (3.5-fold).

First: B7
Second: B8
The “kcat NADPH” value of the first is 1.5-fold higher: 1.5 s⁻¹ for the first, 1.00 s⁻¹ for the second.

For B1, the “kcat with NADPH, fold decreased versus wild-type” value was 1.2 fold.

For B3, the “NADPH-dependent activity (in words)” value was “virtually abolished”.
For B4, the “NADPH-dependent activity (in words)” value was “virtually abolished”.

Same assay, conditions: cofactor NADPH

Going from B1 to B2, the “U/mg NADPH (specific activity)” value falls from 0.27 U/mg to 0.042 ± 0.005 U/mg.

Going from B3 to B4, the “U/mg NADPH (specific activity)” value falls from 0.044 U/mg to 0.032 U/mg.

Going from B9 to B5, the “U/mg NADPH (specific activity)” value rises from 0.04 U/mg to 0.8 U/mg.

First: B6
Second: B7
The “U/mg NADPH (specific activity)” value of the first is lower: 0.23 U/mg for the first, 0.6 U/mg for the second.

Compared with B10, B8 is lower in “U/mg NADPH (specific activity)” value: 0.56 U/mg for the first, 0.4 U/mg for the second.

Same assay, conditions: cofactor NADPH; listed as Se1_KARI^LE1

In the case of B8, the “U/mg NADPH (specific activity)” value is reported as 0.40 U/mg.

Same assay, conditions: cofactor NADPH; listed as Se1_NKR^DD-his6

In the case of B2, the “U/mg NADPH (specific activity)” value is reported as 0.04 ± 0.005 U/mg.

Same assay, conditions: listed as S61D/S63D

For B2, the “kcat NADPH” value was 0.1 s⁻¹.

Same assay, conditions: listed as Se1_KARI^1AA10-his6

In the case of B1, the “NADPH KM value, fold increased versus wild-type/parent” value is reported as greater than 367 fold.

Same assay, conditions: listed as Se1_NKR^DD-his6

For B2, the “kcat NADPH” value was 0.1 s⁻¹.

Same assay, conditions: read-out: Km for cofactor NADPH

Going from B1 to B2, the Km rises from 367 µM to 880 ± 500 µM (2.4-fold).

B3 and B4 cannot be ordered by Km: greater than 1000 µM for the first, greater than 1000 µM for the second.
